Experiments:
Conditions in all cases: both partners purified
SARS-CoV-2 WA1 RBD [1] = molecular target: SARS-CoV-2 WA1 RBD (SARS-CoV-2 USA-WA1/2020 (MT246667.1)); assay: ELISA
[2] = molecular target: SARS-CoV-2 RBD (residues 323-528) (SARS-CoV-2 WA1); assay: crystal structure
SARS-CoV-2 WA1 RBD [3] = molecular target: SARS-CoV-2 WA1 RBD (SARS-CoV-2 USA-WA1/2020 (MT246667.1)); assay: SPR
Yun11-CoV RBD = molecular target: T1, Yun11-CoV RBD (Bat coronavirus Cp/Yunnan2011 (Yun11), UniProt R9QTH3); assay: ELISA
T1 construct: source: Expi293F cells, transient transfection, purified (Ni-NTA, SEC)

Rf1-CoV RBD = molecular target: T2, Rf1-CoV RBD (Bat SARS CoV Rf1/2004, UniProt Q0QDZ0); assay: ELISA
T2 construct: source: Expi293F cells, transient transfection, purified (Ni-NTA, SEC)

B1: HSW-1 IgG (antibody, V domains shown)
VH: QVQLQQPGAELVKPGTSMKLSCKASGYTFTSYWMHWVKQRPGQGLEWIGMIHPNSGSTKYNENFKSKATLTVDKSSSTAYMQFSSLTSEDSAVYYCVRSGSYYGTTYDYFDYWGQGTTLTVSS
VL: DIVLTQSPASLAVSLGQRATISCRASESVNIYGNSFMHWYQQKPGQPPKLLIFRASNLESGIPVRFSGSGSRTDFTLTINPVEADDVATYYCHQSNEDPFTFGSGTKLEIK
notes: copies: 2 + 2
Q: Does B1 bind (SARS-CoV-2 WA1 RBD [1])?
A: Result: binds

B2: HSW-2 Fab (Fab, V domains shown)
VH: QVQLQQSGPELVKPGASVKISCKASGYVFSTSWMSWVKQRPGEGPEWIGRIYPRDGHSSSTGKFKDKATLTADKSSNTAYIHLSSLTSEDSAVYFCARDYGYYYFDYWGQGTTLTVSS
VL: DIQMTQSPASLSASVGEAVTITCRLSENVYSFLAWYQQKQGKSPQLLVYRAKTLAEGVPSRFSGSGSGTQFSLKINSLQPEDFGTYYCQHHYGTPPTFGGGTKLEIK
Q: Does B2 bind [2]?
A: Result: binds

B3: HSW-2 IgG (antibody, V domains shown)
VH: QVQLQQSGPELVKPGASVKISCKASGYVFSTSWMSWVKQRPGEGPEWIGRIYPRDGHSSSTGKFKDKATLTADKSSNTAYIHLSSLTSEDSAVYFCARDYGYYYFDYWGQGTTLTVSS
VL: DIQMTQSPASLSASVGEAVTITCRLSENVYSFLAWYQQKQGKSPQLLVYRAKTLAEGVPSRFSGSGSGTQFSLKINSLQPEDFGTYYCQHHYGTPPTFGGGTKLEIK
notes: copies: 2 + 2
Q: Does B3 bind (SARS-CoV-2 WA1 RBD [1])?
A: Result: binds

B4: M8a-6 IgG (antibody, V domains shown)
VH: QVQLQQPGTELVMPGASVKLSCKTSGYTFTHYWMHWVKQRPGEGLEWIGEIAPSDNYVKYNQKFKGKSTLSVDRSSSTAYMQLSSLTSEDSAVYFCARPDNSGYPVYFDYWGQGTSLTVSS
VL: DIVMTQSQKFMSTSLGDRVSISCKASQDVGTTVAWYQQKPGQSPKLLIYWASTRHTGVPDRFTGTGSGTDYTLTISSVAAEDLALYYCQQHYNTPYTFGGGTKLEIE
notes: copies: 2 + 2
Q: Which Kd (SARS-CoV-2 WA1 RBD [3]) does the source give for B4 here?
A: Its Kd is 104000 pM.

B5: M8a-6 Fab (Fab, V domains shown)
VH: QVQLQQPGTELVMPGASVKLSCKTSGYTFTHYWMHWVKQRPGEGLEWIGEIAPSDNYVKYNQKFKGKSTLSVDRSSSTAYMQLSSLTSEDSAVYFCARPDNSGYPVYFDYWGQGTSLTVSS
VL: DIVMTQSQKFMSTSLGDRVSISCKASQDVGTTVAWYQQKPGQSPKLLIYWASTRHTGVPDRFTGTGSGTDYTLTISSVAAEDLALYYCQQHYNTPYTFGGGTKLEIE
notes: source: Expi293 cells, transient transfection, purified (Ni-NTA, SEC)
Q: Does B5 bind [2]?
A: Result: binds

B6: M8a-3 IgG (antibody, V domains shown)
VH: QVQLQQPGAELVLPGASVKLSCKASGYTFTNYWMHWVKQRPGHGLEWIGEIDPFDTYIKINQKFKGKSTLTVDTSSSTAYMQLSSLTSEDSAVYYCARPDSSGYPVYFDYWGQGTTLTVSS
VL: DIVMTQSHKFMSTSVGDRVSITCKASQDVGTYIAWYQQKPGQSPKLLIYWASTRHTGVPDRFTGSGSGTNYTLTISSVQAEDLALYHCQQHYSTPYTFGGGTKLEIK
notes: copies: 2 + 2
Q: How did the Kd (SARS-CoV-2 WA1 RBD [3]) turn out when B6 was run?
A: Its Kd is 860 pM.

Q: And the koff (SARS-CoV-2 WA1 RBD [3])?
A: The koff was 0.00016 s⁻¹.

Q: And the kon (SARS-CoV-2 WA1 RBD [3])?
A: Its kon is 190000 M⁻¹ s⁻¹.

B7: M8a-3 IgG (antibody, V domains shown)
VH: QVQLQQPGAELVLPGASVKLSCKASGYTFTNYWMHWVKQRPGHGLEWIGEIDPFDTYIKINQKFKGKSTLTVDTSSSTAYMQLSSLTSEDSAVYYCARPDSSGYPVYFDYWGQGTTLTVSS
VL: DIVMTQSHKFMSTSVGDRVSITCKASQDVGTYIAWYQQKPGQSPKLLIYWASTRHTGVPDRFTGSGSGTNYTLTISSVQAEDLALYHCQQHYSTPYTFGGGTKLEIK
notes: copies: 2 + 2
Q: Does B7 bind (Yun11-CoV RBD)?
A: Result: binds

B8: M8a-34 IgG (antibody, V domains shown)
VH: QVQLQQPGAELVKPGASVKMSCKASGYTFITYWITWVKQRPGQGLEWIGDIYPGGGRTNYNEKFKSKATLTVDTSSSTAYMQLRSLTSEDSAVYYCARYDGNYVGYYYAMDYWGQGTSVTVSS
VL: DIVLTQSPVSLAVSLGQRATISCRASESVDFYGNSFIYWYQQKPGQAPKLLIYRASNLESGIPARFSGSGSRTDFTLTIHPVEADDVATYYCQQSIEDPRTFGGGTKLEIK
notes: copies: 2 + 2
Q: Which results are given for B8?
A: binding result (SARS-CoV-2 WA1 RBD [1]): binds; binding result (Rf1-CoV RBD): binds; binding result (Yun11-CoV RBD): binds

B9: M8a-34 Fab (Fab, V domains shown)
VH: QVQLQQPGAELVKPGASVKMSCKASGYTFITYWITWVKQRPGQGLEWIGDIYPGGGRTNYNEKFKSKATLTVDTSSSTAYMQLRSLTSEDSAVYYCARYDGNYVGYYYAMDYWGQGTSVTVSS
VL: DIVLTQSPVSLAVSLGQRATISCRASESVDFYGNSFIYWYQQKPGQAPKLLIYRASNLESGIPARFSGSGSRTDFTLTIHPVEADDVATYYCQQSIEDPRTFGGGTKLEIK
Q: Does B9 bind [2]?
A: Result: binds

B10: C118 IgG (antibody, V domains shown)
VH: QVQLVESGGGVVQPGRSLRLSCAASGFTFSNYAMHWVRQAPGKGLEWVAVISYDGSNKYYADSVKGRFTISRDNSKNTLYLQMNSLRAEDTAIYYCASGYTGYDYFVRGDYYGLDVWGQGTTVTVSS
VL: QPVLTQSPSASASLGASVKLTCTLSSGHSSYAIAWHQQQPEKGPRYLMKLNTDGSHSKGDGIPDRFSGSSSGAERYLTISSLQSEDEADYYCQTWGTGILVFGGGTKLTVL
notes: copies: 2 + 2
Q: With B10 as the binder, how does the Kd (SARS-CoV-2 WA1 RBD [3]) read?
A: Its Kd is 190 pM.

Q: And the koff (SARS-CoV-2 WA1 RBD [3])?
A: The koff was 3.5e-05 s⁻¹.

Q: And the kon (SARS-CoV-2 WA1 RBD [3])?
A: The kon was 180000 M⁻¹ s⁻¹.

B11: M8a-28 IgG (antibody, V domains shown)
VH: QVQLQQPGAELVKPGASVKMSCKASGYNFNHYWISWVKQRPGQGLEWIGDIYPLSHFTTYNEKFTNRATLTVDTSSTTAYMQLNSLTSDDSAVFYCARWDYFDSRTFDYWGQGTTLTVSS
VL: DILLTQFPAILSVSPGERVSFSCRASQTIGTNIHWYQQRINGSPRLLIKYASESISGIPSRFSGSGSGTDFSLSINNVESEDIADYYCQQINSWPLTFGAGTKLDLK
notes: copies: 2 + 2
Q: Does B11 bind (SARS-CoV-2 WA1 RBD [1])?
A: Result: binds

B12: M8a-31 IgG (antibody, V domains shown)
VH: EVQLKQSVAELVRPGASVKVSCTASGFNIKNIYMHWVKQRPEQGLDWIGRIDPANGNSRYAPKFQDKATITADTSSNTAYLQLSSLTSEDTAIYYCADEGWGFANWGQGTLVTVSA
VL: DIVMTQSPSSLTVTAGEKVTMSCKSSQSLLNSGNQKNYLTWYQQKVGQPPKLLIYWASTRDPGVPDRFTGSGFGTDFTLTISSVQAEDLAVYYCQNDYSYPLTFGAGTKVELK
notes: copies: 2 + 2
Q: Which results are given for B12?
A: binding result (SARS-CoV-2 WA1 RBD [1]): binds; binding result (Rf1-CoV RBD): binds; binding result (Yun11-CoV RBD): binds

— paper PMC9606073 (Immunity, 2022)
